B1: P97290 (protein, UniProt P97290 1-504, looked up)
chain: MASRLTPLTLLLLLLAGDRAFSDPEATSHSTQDPLEAQAKSRESFPERDDSWSPPEPTVLPSTWPTTSVAITITNDTMGKVANESFSQHSQPAAQLPTDSPGQPPLNSSSQPSTASDLPTQATTEPFCPEPLAQCSDSDRDSSEAKLSEALTDFSVKLYHAFSATKMAKTNMAFSPFSIASLLTQVLLGAGDSTKSNLESILSYPKDFACVHQALKGFSSKGVTSVSQIFHSPDLAIRDTYVNASQSLYGSSPRVLGPDSAANLELINTWVAENTNHKIRKLLDSLPSDTCLVLLNAVYLSAKWKITFEPKKMMAPFFYKNSMIKVPMMSSVKYPVAQFDDHTLKAKVGQLQLSHNLSFVIVVPVFPKHQLKDVEKALNPTVFKAIMKKLELSKFLPTYLTMPHIKVKSSQDMLSVMEKLEFFDFTYDLNLCGLTEDPDLQVSAMKHETVLELTESGVEAAAASAISFGRSLPIFEVQRPFLFLLWDQQHRFPVFMGRVYDPRG
modifications: full-length
B2: P81117 (protein, UniProt P81117 1-420, looked up)
chain: MRWRIIQVQYCFLLVPCMLTALEAVPIDVDKTKVHNTEPVENARIEPPDTGLYYDEYLKQVIEVLETDPHFREKLQKADIEEIRSGRLSQELDLVSHKVRTRLDELKRQEVGRLRMLIKAKLDALQDTGMNHHLLLKQFEHLNHQNPNTFESRDLDMLIKAATADLEQYDRTRHEEFKKYEMMKEHERREYLKTLSEEKRKEEESKFEEMKRKHEDHPKVNHPGSKDQLKEVWEETDGLDPNDFDPKTFFKLHDVNNDGFLDEQELEALFTRELEKVYNPQNAEDDMIEMEEERLRMREHVMSEIDNNKDRLVTLEEFLRATEKKEFLEPDSWETLDQQQLFTEDELKEYESIIAIQENELKKRAEELQKQKEDLQRQHDHLEAQKQEYHQAVQHLEQKKLQQGIAPSGPAGELKFEPHT
modifications: full-length
B3: P97314 (protein, UniProt P97314 1-193, looked up)
chain: MPVWGGGNKCGACGRTVYHAEEVQCDGRSFHRCCFLCMVCRKNLDSTTVAIHDEEIYCKSCYGKKYGPKGYGYGQGAGTLNMDRGERLGIKPESAQPHRPTTNPNTSKFAQKYGGAEKCSRCGDSVYAAEKIIGAGKPWHKNCFRCAKCGKSLESTTLTEKEGEIYCKGCYAKNFGPKGFGYGQGAGALVHAQ
modifications: full-length
B4: P60824 (protein, UniProt P60824 1-172, looked up)
chain: MASDEGKLFVGGLSFDTNEQALEQVFSKYGQISEVVVVKDRETQRSRGFGFVTFENIDDAKDAMMAMNGKSVDGRQIRVDQAGKSSDNRSRGYRGGSAGGRGFFRGGRSRGRGFSRGGGDRGYGGGRFESRSGGYGGSRDYYASRSQGGSYGYRSSGGSYRDSYDSYATHNE
modifications: full-length
B5: P97449 (protein, UniProt P97449 1-966, looked up)
chain: MAKGFYISKTLGILGILLGVAAVCTIIALSVVYAQEKNRNAENSATAPTLPGSTSATTATTTPAVDESKPWNQYRLPKTLIPDSYRVILRPYLTPNNQGLYIFQGNSTVRFTCNQTTDVIIIHSKKLNYTLKGNHRVVLRTLDGTPAPNIDKTELVERTEYLVVHLQGSLVEGRQYEMDSQFQGELADDLAGFYRSEYMEGDVKKVVATTQMQAADARKSFPCFDEPAMKAMFNITLIYPNNLIALSNMLPKESKPYPEDPSCTMTEFHSTPKMSTYLLAYIVSEFKNISSVSANGVQIGIWARPSAIDEGQGDYALNVTGPILNFFAQHYNTSYPLPKSDQIALPDFNAGAMENWGLVTYRESSLVFDSQSSSISNKERVVTVIAHELAHQWFGNLVTVAWWNDLWLNEGFASYVEYLGADYAEPTWNLKDLMVLNDVYRVMAVDALASSHPLSSPADEIKTPDQIMELFDSITYSKGASVIRMLSSFLTEDLFKKGLSSYLHTYQYSNTVYLDLWEHLQKAVNQQTAVQPPATVRTIMDRWILQMGFPVITVNTNTGEISQKHFLLDSKSNVTRPSEFNYIWIAPIPFLKSGQEDHYWLDVEKNQSAKFQTSSNEWILLNINVTGYYLVNYDENNWKKLQNQLQTDLSVIPVINRAQIIHDSFNLASAKMIPITLALDNTLFLVKEAEYMPWQAALSSLNYFTLMFDRSEVYGPMKRYLKKQVTPLFFYFQNRTNNWVNRPPTLMEQYNEINAISTACSSGLKECRDLVVELYSQWMKNPNNNTIHPNLRSTVYCNAIAFGGEEEWNFAWEQFRNATLVNEADKLRSALACSKDVWILNRYLSYTLNPDYIRKQDTTSTIISIASNVAGHPLVWDFVRSNWKKLFENYGGGSFSFANLIQGVTRRFSSEFELQQLEQFKADNSATGFGTGTRALEQALEKTRANIDWVKENKDAVFKWFTENSS
modifications: full-length
B6: P56695 (protein, UniProt P56695 1-890, looked up)
chain: MNSGTPPPSPSGPPPPPAPQPQARARLNATASLEQDKIEPPRAPRPQADPSAGRSAGEAAAPEPRAPQTGSREETDRAGPMKADVEIPFEEVLEKAKAGDPKAQTEVGKHYLRLANDADEELNSCSAVAWLILAAKQGRREAVKLLRRCLADRKGITSENEAEVKQLSSETDLERAVRKAALVMYWKLNPKKKKQVAVSELLENVGQVNEQDGGAQPGPVPKSLQKQRRMLERLVSSESKNYIALDDFVELTKKYAKGIIPTNLFLQDEDEDEDELAGKSPEDLPLRQKVVKYPLHAIMEIKEYLIDVASKAGMHWLSTIVPTHHINALIFFFIISNLTIDFFAFFIPLVVFYLSFVSMVICTLKVFQDSKAWENFRTLTDLLLRFEPNLDVEQAEVNFGWNHLEPYIHFLLSVVFVIFSFPLASKDCIPCSELAVISTFFTVTSYMSLSSSAEPYTRRALVTEVAAGLLSLLPTVPVDWRFLKVLGQTFFTVPVGHFIILNVSLPCLLYVYLFYLFFRMAQLRNFKGTYCYLVPYLVCFMWCELSVVILLQSTGLGLVRASIGYFLFLFALPILVAGLALMGTVQFARWFLSLDLTKIMVTTVICGVPLLFRWWTKANFSVMGMVKSLTKSSMVKLILVWLTAILLFCWFYVYRSEGMKVYNSTLTWQQYGFLCGPRAWKETNMARTQILCSHLEGHRVTWTGRFKYVRVTEIDNSAESAINMLPFFLGDWMRCLYGEAYPSCSSGNTSTAEEELCRLKQLAKHPCHIKKFDRYKFEITVGMPFGTNGNRGHEEDDITKDIVLRASSEFKDVLLNLRQGSLIEFSTILEGRLGSKWPVFELKAISCLNCMTQLSPARRHVKIEQDWRSTVHGALKFAFDFFFFPFLSAA
modifications: full-length
B7: P63158 (protein, UniProt P63158 1-215, looked up)
chain: MGKGDPKKPRGKMSSYAFFVQTCREEHKKKHPDASVNFSEFSKKCSERWKTMSAKEKGKFEDMAKADKARYEREMKTYIPPKGETKKKFKDPNAPKRPPSAFFLFCSEYRPKIKGEHPGLSIGDVAKKLGEMWNNTAADDKQPYEKKAAKLKEKYEKDIAAYRAKGKPDAAKKGVVKAEKSKKKKEEEDDEEDEEDEEEEEEEEDEDEEEDDDDE
modifications: full-length
B8: P70429 (protein, UniProt P70429 1-414, looked up)
chain: MSEQSICQARASVMVYDDTSKKWVPIKPGQQGFSRINIYHNTASSTFRVVGVKLQDQQVVINYSIVKGLKYNQATPTFHQWRDARQVYGLNFASKEEATTFSNAMLFALNIMNSQEGGPSTQRQVQNGPSPEEMDIQRRQVMEQQHRQESLERRISATGPILPPGHPSSAASTTLSCSGPPPPPPPPVPPPPTGSTPPPPPPLPAGGAQGTNHDESSASGLAAALAGAKLRRVQRPEDASGGSSPSGTSKSDANRASSGGGGGGLMEEMNKLLAKRRKAASQTDKPADRKEDESQTEDPSTSPSPGTRATSQPPNSSEAGRKPWERSNSVEKPVSSLLSRTPSVAKSPEAKSPLQSQPHSRVKPAGSVNDVGLDALDLDRMKQEILEEVVRELHKVKEEIIDAIRQELSGISTT
modifications: full-length

Test system: intracellular proteome of ENR+CD and ENR organoids
Assay: LC-MS/MS TMT proteomics of ENR+CD versus ENR organoids
Type: cell-based, C57BL/6 mice
Details: for Average logFC / M1-1 Log2 Median Normalized / M1-2 Log2 Median Normalized / M2-1 Log2 Median Normalized / M2-2 Log2 Median Normalized: protein abundance, ENR+CD versus ENR organoids; for Average logFC: aggregate of the four sample pairs; for M1-1 Log2 Median Normalized: replicate M1-1; for M1-1 Log2 Median Normalized / M1-2 Log2 Median Normalized / M2-1 Log2 Median Normalized / M2-2 Log2 Median Normalized: log2 ratio; for M1-2 Log2 Median Normalized: replicate M1-2; for M2-1 Log2 Median Normalized: replicate M2-1; for M2-2 Log2 Median Normalized: replicate M2-2; for change: up = enriched in ENR+CD, down = enriched in ENR, FDR<0.05 and log fold change cut-off

Molecule | Average logFC | M1-1 Log2 Median Normalized | M1-2 Log2 Median Normalized | M2-1 Log2 Median Normalized | M2-2 Log2 Median Normalized | change
B1 | 1.245 | 1.362 | 1.123 | 1.2185 | 1.278 | up
B2 | 1.372 | 1.736 | 1.385 | 1.0905 | 1.276 | up
B3 | −1.204 | −1.447 | −1.021 | −1.3045 | −1.045 | down
B4 | 1.155 | 0.902 | 1.138 | 1.3145 | 1.267 | up
B5 | 1.247 | 1.246 | 1.528 | 1.2875 | 0.807 | up
B6 | 1.149 | 1.527 | 0.901 | 0.7335 | 1.433 | up
B7 | −1.338 | −1.875 | −1.062 | −1.2145 | −1.339 | down
B8 | 1.275 | 1.275 | 1.519 | 1.2085 | 1.206 | up

— patent US11994512B2, “Single-cell genomic methods to generate ex vivo cell systems that recapitulate in vivo biology with improved fidelity” (Massachusetts Institute of Technology, priority 2018, dated 2024)
